These results are taken from publication PMC4546627, “Biophysical Characterization of Essential Phosphorylation at the Flexible C-Terminal Region of C-Raf with 14-3-3ζ Protein” (PLoS ONE, 2015).

Entries after “also recorded” stand apart in the source; their conditions may differ. Where a SMILES comes first, the peptide text is derived from it. Where no end group is shown, it is not given here. [ ]: non-standard residue; d: D form. pS = N[C@@H](COP(=O)(O)O)C(=O)O

In test [1] the target is T1, human 14-3-3ζ protein (Homo sapiens, UniProt P63104).
T1 construct: hexa-histidine (His6, from pQE30 vector) (N); made in house; host or cells: E. coli M15
T1 sequence (P63104 1-245): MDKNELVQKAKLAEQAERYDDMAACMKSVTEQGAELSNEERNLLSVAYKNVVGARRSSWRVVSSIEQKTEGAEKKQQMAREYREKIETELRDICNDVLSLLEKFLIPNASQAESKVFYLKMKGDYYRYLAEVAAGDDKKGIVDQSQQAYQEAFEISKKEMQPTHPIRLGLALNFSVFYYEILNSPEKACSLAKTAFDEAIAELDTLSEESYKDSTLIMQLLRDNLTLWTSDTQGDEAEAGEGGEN
As to the kind of experiment: Isothermal titration calorimetry (ITC) of peptide binding to 14-3-3ζ. The source says:
Human 14-3-3ζ full length sequence was PCR amplified using pcDNA3 14-3-3ζ as a template with forward primer (5´-[…]-3´) and reverse primer (5´-[…]-3´). The PCR amplified product was digested with BamH1 and Pst1 and cloned into pQE30 vector. This vector contains N-terminal hexa- histidine tag suitable for affinity purification. The cloned fragment was confirmed by automated DNA sequencer, Applied Biosystem 3130×I 96 capillary DNA Analyzer.
E. coli M15 cells were transformed with this construct and grown at 37°C in LB medium containing ampicillin and kanamycin. The cells were grown till 0.6 (O.D.600nm) and the expression of the protein was induced with 0.5 mM IPTG for 3 hours. The cells were harvested and stored at -70°C. The cells were subsequently resuspended in lysis buffer (10 mM NaH2PO4, 100 mM NaCl, pH7.0, 1 mM PMSF (Sigma, St. Louis, MO), 1X Halt Protease inhibitor cocktail (ThermoFisher Scientific, Waltham, MA) and lysed by passing through the French press at 20,000 psi. Cell lysate was centrifuged at 20,000×g for 15 minutes at 4°C. The supernatant was collected and again centrifuged at 100,000×g for 1 hour. Cell homogenate was applied onto TALON affinity resin (Clontech, Mountain View, CA) pre-equilibrated with lysis buffer. Resin was washed with five volumes of lysis buffer containing 20 mM imidazole. Bound protein was eluted with 150 mM imidazole containing lysis buffer. Imidazole was then removed by dialysis; the buffer was exchanged with 10 mM NaH2PO4, 100 mM NaCl, pH 6.1 and the protein was concentrated in sucrose bed. Commercially synthesized and HPLC-purified (> 95%) KH16p and KH16 peptides were purchased from GL Biochem (Shanghai, China) and used as received.
ITC technique was employed to study thermodynamics of KH16p and KH16 peptides interactions with 14-3-3ζ protein with the help of VP-ITC micro-calorimeter in high feedback mode. The peptides were dissolved in the same dialysis buffer of 14-3-3ζ protein (i.e., 10 mM Na2HPO4 buffer containing 100 mM NaCl, pH 6.1). Sample cell with 50 μM 14-3-3ζ protein was titrated against 1 mM peptide in a syringe with 300 rpm stirring speed with an initial delay of 60 sec. The cell temperature was kept at 298 K and 10 μcal/s of reference power as applied to maintain a flat baseline. A total of 17 injections of 1 mM KH16p/KH16 were performed, where the initial injection was of 0.4 μl and the final was 2.0 μl, while the remaining 15 injections were 2.5 μl each. Each injection was over a period of 0.8 sec with a spacing of 150 sec and filter time of 5 sec. An equivalent control experiment to subtract the heat of dilution of the peptides in buffer was performed (i.e., the same concentration of peptide was injected into the buffer solution keeping same experimental parameters). Results obtained were plotted using MicroCal Origin 7.0 software. In order to determine the thermodynamic parameters (i.e., association constant K A and enthalpy of reaction ΔH), the single-site binding model was used. Other thermodynamic parameters such as the free energy of binding (ΔG) and entropy (ΔS) were calculated using Eqs (2) and (3), respectively: ΔG=−RTlnKA (2) ΔG=ΔH−TΔS (3)
On the technique in general: Isothermal titration calorimetry measures the heat released or taken up as one component is titrated into another.

Test [2] concerns the target C-Raf pS233 peptide (Homo sapiens) (UniProt P04049). The note with it: cited from earlier work.
In test [3] the target is C-Raf pS259 peptide (Homo sapiens) (UniProt P04049). The note with it: cited from earlier work.
The target in test [4] is C-Raf pS233/pS259 peptide (Homo sapiens) (UniProt P04049). As to conditions: cited from earlier work.
The target in test [5] is T1, human 14-3-3ζ protein. In words: STD NMR with 14-3-3ζ. It counts as binding. As to conditions: 1 mM peptide, 2 μM 14-3-3ζ (500:1), D2O, 10 mM Na2HPO4, 100 mM NaCl, pH 6.1, 288 K. The procedure:
Saturation transfer difference (STD) NMR experiments were carried out at 288 K using standard STD pulse sequences, with WATERGATE 3-9-19 water suppression method. Briefly, 1 mM of KH16p/KH16 peptide in 10 mM Na2HPO4 buffer (pH 6.1) with 100 mM NaCl was lyophilized and resuspended in an equal volume of D2O, and 2 μM 14-3-3ζ proteins was added to it. A train of 40 selective Gaussian-shaped pulses (49 ms each) with an interval period of 1 ms was used to saturate protein resonance for a total of 2 sec saturation time. During the STD NMR experiment, on- and off-resonance frequencies were set at -1 ppm and 40 ppm, respectively. Subtraction of off-resonance spectrum from the on-resonance spectra to yield signals appearing due to saturation transfer from protein to ligand was achieved using phase cycling. The one-dimensional STD spectra were acquired with 1024 scans with 16 dummy scans using a sweep width of 12 ppm. An exponential line broadening function of 3 Hz was applied to the spectral data before Fourier transformation. Similar STD experiments were performed on the peptide KH16p or KH16 in the absence of 14-3-3ζ protein as a control.

Test [6] concerns the target T2, 14-3-3ζ (Homo sapiens, UniProt P63104).
T2 chain: T1 sequence (P63104 1-245)
In words: 31P NMR.

Consider `CC[C@H](C)[C@H](NC(=O)[C@@H](N)CCCCN)C(=O)N[C@@H](CC(N)=O)C(=O)N[C@@H](CCCNC(=N)N)C(=O)N[C@@H](CO)C(=O)N[C@@H](C)C(=O)N[C@@H](COP(=O)(O)O)C(=O)N[C@@H](CCC(=O)O)C(=O)N1CCC[C@H]1C(=O)N[C@@H](CO)C(=O)N[C@@H](CC(C)C)C(=O)N[C@@H](Cc1c[nH]cn1)C(=O)N[C@@H](CCCNC(=N)N)C(=O)N[C@@H](C)C(=O)N[C@@H](C)C(=O)N[C@@H](Cc1c[nH]cn1)C(=O)O` [KH16p] (H-KINRSA[pS]EPSLHRAAH-OH), for which the dissociation constant Kd (as a rule, the constant that tells how readily two partners part at equilibrium) in test [1] was 17.3 µM.

On to 14-3-3ζ (from UniProt P63104), for which the figures for the dissociation constant (Kd) in test [2], in test [3] and in test [4] were 171 µM, 16.7 µM and 0.346 µM, respectively.

Turning to “KH16: control peptide KH16 devoid of phosphorylation at S621 (C-Raf 615–630) (KINRSASEPSLHRAAH; UniProt P04049 615-630, looked up, fragment)”, the “N (stoichiometry)” value in test [1] (ITC, 50 μM 14-3-3ζ in cell, 1 mM peptide in syringe, 298 K, 10 mM Na2HPO4, 100 mM NaCl, pH 6.1, single-site binding model) is given as 1.89 ± 1.45 × 10^4. In test [1] (ITC, 298 K, pH 6.1), the “T∆S” value is -411.24 kcal/mol; the “binding affinity (in words)” value is “did not show any appreciable binding affinity; also recorded: relatively weak and the corresponding KD value is in the millimolar range”. The “∆S” value in test [1] (ITC, 298 K, pH 6.1, calculated from ΔG=ΔH−TΔS) is recorded as -1.38 × 10^3 cal mol^-1 deg^-1. In test [1] (ITC, 298 K, pH 6.1, calculated from ΔG=−RTlnKA), the “∆G” value was -1.96 kcal/mol. The “STD NMR signals with 14-3-3ζ (in words)” value in test [5] is “did not show any peaks in both the aromatic and the aliphatic regions”.

With KINRSA[pS]EPSLHRAAH [C-Raf KH16p phosphopeptide 615-630], binding in test [6] was characterised by a dissociation constant (Kd) of 17.7 µM.
